Laboratory results published in US20230322953A1 (HARBOUR BIOMED SHANGHAI, published 2023).
One block for each binder: values may come before it.

Assays:
[1] = target: T1, human CD3 (TCR/CD3 complex) on human T cells (human, UniProt P07766 23-207); experiment: flow cytometry (FACS) on human T cells, Experiment 1
T1 construct: whole, on cells

[2] = target: T2, human 4-1BB (tumor necrosis factor receptor superfamily member 9) (human, UniProt Q07011 24-255); experiment: flow cytometry (FACS) on CHO-K1/hu 4-1BB cells
T2 construct: whole, on cells; also called hu 4-1BB; CD137
T2 sequence (Q07011 24-255): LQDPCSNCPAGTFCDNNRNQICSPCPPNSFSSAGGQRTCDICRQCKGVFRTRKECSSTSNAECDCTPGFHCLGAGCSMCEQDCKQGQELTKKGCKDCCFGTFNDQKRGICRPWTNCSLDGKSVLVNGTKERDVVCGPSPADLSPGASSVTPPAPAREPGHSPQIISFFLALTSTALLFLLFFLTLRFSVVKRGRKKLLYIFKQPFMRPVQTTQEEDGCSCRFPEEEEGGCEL

[3] = target: T3, human PD-L1 (programmed death ligand 1) (human, UniProt Q9NZQ7 19-290); experiment: flow cytometry (FACS) on CHO-K1/hPDL1 cells, Experiment 1
T3 construct: whole, on cells; also called hPDL1; CD274
T3 sequence (Q9NZQ7 19-290): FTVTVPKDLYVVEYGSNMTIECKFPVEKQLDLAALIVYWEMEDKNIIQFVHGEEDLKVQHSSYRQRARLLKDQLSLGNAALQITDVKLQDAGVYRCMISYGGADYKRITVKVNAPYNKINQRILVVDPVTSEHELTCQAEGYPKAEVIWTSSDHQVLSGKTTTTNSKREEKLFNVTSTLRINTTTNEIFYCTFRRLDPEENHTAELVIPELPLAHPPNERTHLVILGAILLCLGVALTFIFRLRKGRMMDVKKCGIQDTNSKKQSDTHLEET

[4] = target: T4, human CTLA4 on cells (CHO-K1/hCTLA4; HEK293/hCTLA4; 293F-hCTLA4) (human, UniProt P16410 36-223); experiment: FACS, CHO-K1/hCTLA4 cells (Test 2)
T4 construct: whole, on cells
T4 sequence (P16410 36-223): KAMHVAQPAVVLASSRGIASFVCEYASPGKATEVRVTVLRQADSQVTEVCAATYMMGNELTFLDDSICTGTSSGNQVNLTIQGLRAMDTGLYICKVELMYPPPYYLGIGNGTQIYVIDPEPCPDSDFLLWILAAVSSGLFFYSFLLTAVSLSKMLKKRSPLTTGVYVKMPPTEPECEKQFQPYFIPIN

[5] = target: T5, human PD-L1 on cells (CHO-K1/hPDL1; MDA-MB-231) (human, UniProt Q9NZQ7 19-290); experiment: competition FACS: biotinylated PD-1 to CHO-K1/hPDL1 cells (Experiment 2)
T5 construct: whole, on cells
T5 sequence (Q9NZQ7 19-290): as the sequence (Q9NZQ7 19-290) above

[6] = target: T4, human CTLA4 on cells (CHO-K1/hCTLA4; …); experiment: FACS, HEK293/hCTLA4 cells
[7] = target: T5, human PD-L1 on cells (CHO-K1/hPDL1; …); experiment: FACS, CHO-K1/hPDL1 cells (Experiment 2)
[8] = target: T6, human BCMA (human, UniProt Q02223 1-184); experiment: flow cytometry, NCI-H929 cells
T6 construct: whole, on cells; the cell line is named under assay; also called TNFRSF17; CD269
T6 sequence (looked up): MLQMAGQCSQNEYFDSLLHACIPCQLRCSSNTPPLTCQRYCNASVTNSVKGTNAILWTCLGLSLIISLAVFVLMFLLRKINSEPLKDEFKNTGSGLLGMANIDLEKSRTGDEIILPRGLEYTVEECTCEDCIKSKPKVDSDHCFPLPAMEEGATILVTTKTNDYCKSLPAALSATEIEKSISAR

[9] = target: T7, biotinylated human BCMA-Fc, Avitag recombinant protein (ACRO Biosystems, #BC7-H82F0) (human, UniProt Q02223 1-54, biotinylated); experiment: BLI (Octet Red96e), biotinylated BCMA-Fc on SA sensor, antibody in solution, 1:1 global fit
T7 construct: extracellular domain; Bought protein; also called human BCMA protein; recombinant human BCMA-ECD-Fc; not shown: Fc of the bought fusion protein; Avitag
T7 sequence (looked up): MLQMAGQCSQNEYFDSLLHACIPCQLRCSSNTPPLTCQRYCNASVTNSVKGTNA

T1 sequence (P07766 23-207, one chain of several): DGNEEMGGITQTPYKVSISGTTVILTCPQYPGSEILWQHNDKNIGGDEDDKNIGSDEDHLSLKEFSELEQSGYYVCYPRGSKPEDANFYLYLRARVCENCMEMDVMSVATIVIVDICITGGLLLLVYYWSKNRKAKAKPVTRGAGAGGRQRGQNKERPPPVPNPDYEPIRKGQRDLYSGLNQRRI

B3: PR003551, PD-L1×4-1BB bispecific antibody molecule of IgG-VH tetravalent symmetric structure (bispecific antibody)
light: DIQMTQSPSTLSASVGDRVTVTCRASQSIYIWLAWYQQKPGKAPNLLIYKASSLETGVPSRFSGSGSGTEFTLTISSLQPDDFATYYCQQYYGSSRTFGQGTKVEIKRTVAAPSVFIFPPSDEQLKSGTASVVCLLNNFYPREAKVQWKVDNALQSGNSQESVTEQDSKDSTYSLSSTLTLSKADYEKHKVYACEVTHQGLSSPVTKSFNRGEC
heavy: EVQLVESGGGLVQPGGSLRLSCAASGFTFSSYWMSWVRQAPGKGLEWVANIKQEGSEKYYVDSVKGRFTISRDNAKNSLYLQMNSLRAEDTAVYYCARDRAVAGAFDIWGQGTMVTVSSASTKGPSVFPLAPSSKSTSGGTAALGCLVKDYFPEPVTVSWNSGALTSGVHTFPAVLQSSGLYSLSSVVTVPSSSLGTQTYICNVNHKPSNTKVDKKVEPKSCDKTHTCPPCPAPEAAGGPSVFLFPPKPKDTLMISRTPEVTCVVVDVSHEDPEVKFNWYVDGVEVHNAKTKPREEQYNSTYRVVSVLTVLHQDWLNGKEYKCKVSNKALGAPIEKTISKAKGQPREPQVYTLPPSREEMTKNQVSLTCLVKGFYPSDIAVEWESNGQPENNYKTTPPVLDSDGSFFLYSKLTVDKSRWQQGNVFSCSVMHEALHNHYTQKSLSLSPGEPKSSDKTHTPPPPPRTEVQLLESGGGLVQPGGSLRLSCAASGFIFSNFAMTWVRQPPEKGLKWVSSINGSGFNTYYTDSVKGRFTISRDNSRNTLYLQMNRLTAEDTAVYFCAKEGSSETDDHYYNVDVWGQGTTVTVSS
notes: Structure 5; IgG PR000265, VH of PR001836 at C-terminus of heavy chain; linker H1_15-RT; human IgG1 (L234A, L235A, P329G)
EC50 [2]: 3.15 nM
Maximum MFI [2]: 1570 MFI
EC50 [3]: 1.29 nM
Maximum MFI [3]: 2150 MFI

B4: PR000403 (bispecific antibody, human IgG1, kappa, L234A L235A)
chain 1: EVQLVESGGGLVQPGGSLRLSCAASGFTFSSYWMSWVRQAPGKGLEWVANIKQEGSEKYYVDSVKGRFTISRDNAKNSLYLQMNSLRAEDTAVYYCARDRAVAGAFDIWGQGTMVTVSSASTKGPSVFPLAPSSKSTSGGTAALGCLVKDYFPEPVTVSWNSGALTSGVHTFPAVLQSSGLYSLSSVVTVPSSSLGTQTYICNVNHKPSNTKVDKKVEPKSC
chain 2: DIQMTQSPSTLSASVGDRVTVTCRASQSIYIWLAWYQQKPGKAPNLLIYKASSLETGVPSRFSGSGSGTEFTLTISSLQPDDFATYYCQQYYGSSRTFGQGTKVEIKRTVAAPSVFIFPPSDEQLKSGTASVVCLLNNFYPREAKVQWKVDNALQSGNSQESVTEQDSKDSTYSLSSTLTLSKADYEKHKVYACEVTHQGLSSPVTKSFNRGECEVQLVESGGGLIQPGGSLRLSCAVSGFTVSKNYMSWVRQAPGKGLEWVSVVYSGGSKTYADSVKGRFTISRDNSKNTLYLQMNSLRAEDTAVYYCARAVPHSPSSFDIWGQGTMVTVSSEPKSCDKTHTCPPCPAPEAAGGPSVFLFPPKPKDTLMISRTPEVTCVVVDVSHEDPEVKFNWYVDGVEVHNAKTKPREEQYNSTYRVVSVLTVLHQDWLNGKEYKCKVSNKALGAPIEKTISKAKGQPREPQVYTLPPSREEMTKNQVSLTCLVKGFYPSDIAVEWESNGQPENNYKTTPPVLDSDGSFFLYSKLTVDKSRWQQGNVFSCSVMHEALHNHYTQKSLSLSPGK
notes: PD-L1×CTLA4, structure 1 Fab(CL)-VH-Fc
EC50 [4]: 20.5 nM
Maximum MFI [4]: 343 MFI
IC50 [5]: 0.42 nM
Maximum inhibition rate (%) [5]: 81.4%
EC50 [6]: 16.3 nM
Maximum MFI [6]: 1410 MFI
EC50 [7]: 0.73 nM
Maximum MFI [7]: 8090 MFI

B5: PR000701, PD-L1×4-1BB bispecific antibody molecule of FIT-Ig structure (bispecific antibody, human IgG4 S228P, kappa)
chain 1: not shown
chain 2: EVQLVESGGGLVQPGGSLRLSCAASGFTFSSYWMSWVRQAPGKGLEWVANIKQEGSEKYYVDSVKGRFTISRDNAKNSLYLQMNSLRAEDTAVYYCARDRAVAGAFDIWGQGTMVTVSSASTKGPSVFPLAPSSKSTSGGTAALGCLVKDYFPEPVTVSWNSGALTSGVHTFPAVLQSSGLYSLSSVVTVPSSSLGTQTYICNVNHKPSNTKVDKKVEPKSC
chain 3: not shown
notes: FIT-Ig; Fab A of PR000265 (PD-L1), Fab B of PR000197 (4-1BB) close to Fc; no linker; human IgG4
EC50 [2]: 10.2 nM
Maximum MFI [2]: 1340 MFI
EC50 [3]: 1.72 nM
Maximum MFI [3]: 1710 MFI

B6: PR000404 (bispecific antibody, human IgG1, kappa)
chain 1: EVQLVESGGGLVQPGGSLRLSCAASGFTFSSYWMSWVRQAPGKGLEWVANIKQEGSEKYYVDSVKGRFTISRDNAKNSLYLQMNSLRAEDTAVYYCARDRAVAGAFDIWGQGTMVTVSSASTKGPSVFPLAPSSKSTSGGTAALGCLVKDYFPEPVTVSWNSGALTSGVHTFPAVLQSSGLYSLSSVVTVPSSSLGTQTYICNVNHKPSNTKVDKKVEPKSC
chain 2: not shown
notes: PD-L1×CTLA4, structure 1
EC50 [4]: 26.9 nM
Maximum MFI [4]: 339 MFI
IC50 [5]: 0.6 nM
Maximum inhibition rate (%) [5]: 81.1%
EC50 [6]: 37.2 nM
Maximum MFI [6]: 1620 MFI
EC50 [7]: 0.78 nM
Maximum MFI [7]: 8100 MFI

B7: PR000940, anti-BCMA HCAb antibody, clone 1005P10H8 (antibody, human IgG1, V domains shown)
VH: EVQLLESGGGLVQPGGSLRLSCAASGFTFSSYAMIWVRQAPGKGLEWVSGISESGGSTYYADSVKGRFTISRDNSKNTLYLQMNSLRAEDTAVYFCVKDLDDILTGYYKDYWGQGTLVTVSS
notes: Heavy-chain-only antibody (HCAb), human IgG1 Fc, no light chain
EC50 [8]: 1.85 nM
Maximum MFI [8]: 91000
Kd [9]: 0.152 nM
koff [9]: 6.09e-05 s⁻¹
kon [9]: 401000 M⁻¹ s⁻¹

Now from value to binder:

Maximum MFI [1]: 5160 MFI
B1: PR001987 (bispecific antibody, human IgG1, lambda, L234A L235A)
light: QAVVTQEPSLTVSPGGTVTLTCRSSTGAVTTSNYANWVQQKPGQAPRGLIGGTNKRAPWTPARFSGSLLGDKAALTLLGAQPEDEAEYFCALWYSNLWVFGGGTKLTVLGQPKAAPSVTLFPPSSEELQANKATLVCLISDFYPGAVTVAWKADSSPVKAGVETTTPSKQSNNKYAASSYLSLTPEQWKSHRSYSCQVTHEGSTVEKTVAPTECS
heavy: EVQLLESGGGLVQPGGSLRLSCAASGFTFNTYAMNWVRQAPGKGLEWVSRIRSKYNNYATYYADSVKDRFTISRDDSKSTLYLQMNSLRAEDTAVYYCVRHGNFGNSYVSWFAYWGQGTLVTVSSASTKGPSVFPLAPSSKSTSGGTAALGCLVKDYFPEPVTVSWNSGALTSGVHTFPAVLQSSGLYSLSSVVTVPSSSLGTQTYICNVNHKPSNTKVDKKVEPKSCDKTHTCPPCPAPEAAGGPSVFLFPPKPKDTLMISRTPEVTCVVVDVSHEDPEVKFNWYVDGVEVHNAKTKPREEQYNSTYRVVSVLTVLHQDWLNGKEYKCKVSNKALGAPIEKTISKAKGQPREPQVYTLPPCREEMTKNQVSLWCLVKGFYPSDIAVEWESNGQPENNYKTTPPVLDSDGSFFLYSKLTVDKSRWQQGNVFSCSVMHEALHNHYTQKSLSLSPGK
chain: EVQLLESGGGLVQPGGSLRLSCAASGFTFSSYAMIWVRQAPGKGLEWVSGISESGGSTYYADSVKGRFTISRDNSKNTLYLQMNSLRAEDTAVYFCVKDLDDILTGYYKDYWGQGTLVTVSSASEPKSSDKTHTCPPCPAPEAAGGPSVFLFPPKPKDTLMISRTPEVTCVVVDVSHEDPEVKFNWYVDGVEVHNAKTKPREEQYNSTYRVVSVLTVLHQDWLNGKEYKCKVSNKALGAPIEKTISKAKGQPREPQVCTLPPSREEMTKNQVSLSCAVKGFYPSDIAVEWESNGQPENNYKTTPPVLDSDGSFFLVSKLTVDKSRWQQGNVFSCSVMHEALHNHYTQKSLSLSPGK
notes: Structure 11 (Fab-Fc-VH): CD3 Fab from PR000511, BCMA VH from PR000940; human IgG1 knob/hole, AAG; also called BCMA×CD3 bispecific antibody molecule of Fab-Fc-VH asymmetric structure

Maximum MFI [1]: 5800 MFI
B2: PR001988 (bispecific antibody, human IgG1, lambda, L234A L235A)
light: QAVVTQEPSLTVSPGGTVTLTCRSSTGAVTTSNYANWVQQKPGQAPRGLIGGTNKRAPWTPARFSGSLLGDKAALTLLGAQPEDEAEYFCALWYSNLWVFGGGTKLTVLGQPKAAPSVTLFPPSSEELQANKATLVCLISDFYPGAVTVAWKADSSPVKAGVETTTPSKQSNNKYAASSYLSLTPEQWKSHRSYSCQVTHEGSTVEKTVAPTECS
heavy: EVQLLESGGGLVQPGGSLRLSCAASGFTFNTYAMNWVRQAPGKGLEWVSRIRSKYNNYATYYADSVKDRFTISRDDSKSTLYLQMNSLRAEDTAVYYCVRHGNFGNSYVSWFAYWGQGTLVTVSSASTKGPSVFPLAPSSKSTSGGTAALGCLVKDYFPEPVTVSWNSGALTSGVHTFPAVLQSSGLYSLSSVVTVPSSSLGTQTYICNVNHKPSNTKVDKKVEPKSCDKTHTCPPCPAPEAAGGPSVFLFPPKPKDTLMISRTPEVTCVVVDVSHEDPEVKFNWYVDGVEVHNAKTKPREEQYNSTYRVVSVLTVLHQDWLNGKEYKCKVSNKALGAPIEKTISKAKGQPREPQVYTLPPCREEMTKNQVSLWCLVKGFYPSDIAVEWESNGQPENNYKTTPPVLDSDGSFFLYSKLTVDKSRWQQGNVFSCSVMHEALHNHYTQKSLSLSPGK
chain: EVQLVETGGGLIQPGGSLRLSCAASGFPVSSNYMSWVRQAPGKGLEWVSVIFSGGRTYYADSVKGRFTISRDNSKNTLYLQMNSLRAEDTAVYYCARRNWIDGRDAFDIWGQGTMVTVSSASEPKSSDKTHTCPPCPAPEAAGGPSVFLFPPKPKDTLMISRTPEVTCVVVDVSHEDPEVKFNWYVDGVEVHNAKTKPREEQYNSTYRVVSVLTVLHQDWLNGKEYKCKVSNKALGAPIEKTISKAKGQPREPQVCTLPPSREEMTKNQVSLSCAVKGFYPSDIAVEWESNGQPENNYKTTPPVLDSDGSFFLVSKLTVDKSRWQQGNVFSCSVMHEALHNHYTQKSLSLSPGK
notes: Structure 11 (Fab-Fc-VH): CD3 Fab from PR000511, BCMA VH from PR000943; human IgG1 knob/hole, AAG
